The target of test [1] is T1, recombinant human IGF-II (Insulin-like Growth Factor II) (human, UniProt P01344 25-91, biotinylated (Biotinyl-IGF-II, GroPep) where immobilised in SPR, site not stated; not biotinylated in ITC and as SPR analyte).
T1 construct: also called IGF2; IGF-2
The test can be described thus: SPR, IGF-II immobilised, steady state. How it is done:
(§1) Kinetic analysis by Surface Plasmon Resonance (SPR) was conducted on a BIAcore 3000 biosensor (BIAcore, Uppsala, Sweden) at 25° C. in HBS-EP (10 mM HEPES, pH 7.4, 150 mM NaCl, 3 mM EDTA, 0.005% surfactant P20) at a flow rate of 40 μl/min. […] Kinetic experiments consisted of a two minute injection of analyte followed by a 100 s dissociation phase in running buffer, after which the binding surface was regenerated with a 2 minute injection of 2 M MgCl₂. A blank flow cell was used for in-line reference subtraction of changes due to differences in refractive index of running buffer versus sample and a buffer-only injection was used to subtract instrument noise and drift. Injections were performed in duplicate for each concentration and in a randomised order. Kinetic parameters were determined by global fitting of sensorgrams to a two-state (conformational change) binding model using BIAevaluation software version 4.0.1. In all cases the minor component made an insignificant contribution to the overall affinity and as such only the kinetic parameters of the major binding component were used. For each interaction the dissociation affinity constant (KD) was also calculated by fitting of the response of each concentration at equilibrium to a steady-state affinity model using BIAevaluation. In order to investigate the influence of ionic strength, kinetic experiments were conducted in HBS-EP running buffers containing the desired NaCl concentration. In each case, analyte samples were made up in the appropriate running buffer prior to injection.
(§2) Following purification, the binding of each mutant construct to IGF2 was assessed by SPR and compared to the wild type domain 11. Sensorgrams were generated using biotinylated IGF2 immobilised to the cell surface and mutant domain 11 proteins as the free analyte (FIG. 4).
On the technique in general: Surface plasmon resonance follows binding to a sensor surface in real time, without labels.

For test [2], the target named is T1, recombinant human IGF-II (Insulin-like …). The test can be described thus: SPR, IGF-II immobilised, major kinetic parameter kd1. How it is done:
(§3) Kinetic experiments consisted of a two minute injection of analyte followed by a 100 s dissociation phase in running buffer, after which the binding surface was regenerated with a 2 minute injection of 2 M MgCl₂. A blank flow cell was used for in-line reference subtraction of changes due to differences in refractive index of running buffer versus sample and a buffer-only injection was used to subtract instrument noise and drift. Injections were performed in duplicate for each concentration and in a randomised order. Kinetic parameters were determined by global fitting of sensorgrams to a two-state (conformational change) binding model using BIAevaluation software version 4.0.1. In all cases the minor component made an insignificant contribution to the overall affinity and as such only the kinetic parameters of the major binding component were used. For each interaction the dissociation affinity constant (KD) was also calculated by fitting of the response of each concentration at equilibrium to a steady-state affinity model using BIAevaluation. […]
(§4) The affinity of versions of Fc-tagged domain 11 fusion proteins, and domain 11 constructs, for IGF-II were compared using surface plasmon resonance (BIAcore 3000). […] The Fc-tagged domain 11 kinetic data performed in triplicate generated sensorgrams that were analyzed using a bivalent analyte model.

Test [3] shares this target. In words: SPR, IGF-II immobilised, steady state. On the procedure:
as §1, with “In order to investigate the influence of ionic strength, kinetic experiments were conducted in HBS-EP running buffers containing the desired NaCl concentration. In each case, analyte samples were made up in the appropriate running buffer prior to injection.” left out
This is another data set of the same source.

Test [4] has the same target. The test can be described thus: SPR, IGF-II immobilised, major kinetic parameter ka1. How it is done: as §3, §4
Test [5] has the same target. The test can be described thus: SPR, IGF-II immobilised, major kinetic parameters. How it is done: as §3, §4
For test [6] the target is unchanged. In words: SPR, IGF-II immobilised, kinetic fit. On the procedure: as §1, §2
The target is the same in test [7]. The test can be described thus: SPR, steady-state KD relative to wild type. On the procedure: […]. Values are the mean±S.E.M. of three separate experiments.
as §1
Following purification, the binding of each mutant construct to IGF2 was assessed by SPR and compared to the wild type domain 11.

For test [8] the target is unchanged. The test can be described thus: SPR.

Here are results for three molecules from patent US20090304651A1 (published 2009).

T1 sequence (P01344 25-91 limits assumed): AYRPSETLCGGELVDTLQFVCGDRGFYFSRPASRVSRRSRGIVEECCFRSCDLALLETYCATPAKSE

B1: wild type IGF2R domain 11 (amino acids 1511-1650) with C-terminal His6 tag, from Pichia pastoris (receptor)
chain: NEHDDCQVTNPSTGHLFDLSSLSGRAGFTAAYSEKGLVYMSICGENENCPPGVGACFGQTRISVGKANKRLRYVDQVLQLVYKDGSPCPSKSGLSYKSVISFVCRPEAGPTNRPMLISLDKQTCTLFFSWHTPLACEQATHHHHHH
notes: also called WT; wild type domain 11
As a reminder, the Kd is the free concentration of one partner at which half of the binding sites on the other are occupied at equilibrium, for simple one-to-one binding. One may read the koff as the rate constant with which the complex falls apart. The kon is a measure of how fast the partners come together. Turning to B1, the equilibrium dissociation constant (Kd) in test [1] worked out at 0.103 µM; in test [3], 0.103 µM; in test [5], 0.119 µM; in test [6], 0.102 µM. The koff in test [2] stood at 0.0787 s⁻¹; in test [6], 0.053 s⁻¹. For the same molecule, the kon worked out at 662000 M⁻¹ s⁻¹ in test [4] and 525000 M⁻¹ s⁻¹ in test [6]. In addition, in test [7], the “Relative Affinity” value is 1 fold (wild type = 1.00).

B2: IGF2R domain 11 E1544A (amino acids 1511-1650, C-terminal His6 tag, from Pichia pastoris) (receptor)
chain: NEHDDCQVTNPSTGHLFDLSSLSGRAGFTAAYSAKGLVYMSICGENENCPPGVGACFGQTRISVGKANKRLRYVDQVLQLVYKDGSPCPSKSGLSYKSVISFVCRPEAGPTNRPMLISLDKQTCTLFFSWHTPLACEQATHHHHHH
On to B2, for which the Kd in test [1] came to 0.037 µM. Besides, in test [8], the “relative affinity increase over wild type” value is about 2.5 fold. Further, in test [6], the Kd is 0.036 µM, the koff came out at 0.033 s⁻¹ and the kon came to 934000 M⁻¹ s⁻¹. Further, the “Relative Affinity” value in test [7] is 2.79 fold (wild type = 1.00).

B3: IGF2R domain 11 E1544K (amino acids 1511-1650, C-terminal His6 tag, from Pichia pastoris) (receptor)
chain: NEHDDCQVTNPSTGHLFDLSSLSGRAGFTAAYSKKGLVYMSICGENENCPPGVGACFGQTRISVGKANKRLRYVDQVLQLVYKDGSPCPSKSGLSYKSVISFVCRPEAGPTNRPMLISLDKQTCTLFFSWHTPLACEQATHHHHHH
notes: also called enhanced mutant
For the molecule B3, in test [2], the koff turned out to be 0.0406 s⁻¹. The kon in test [4] turned out to be 2.02e+06 M⁻¹ s⁻¹. Moreover, the Kd in test [5] turned out to be 0.0205 µM.
